Reference: article PMC11203719, “Mts1 (S100A4) and Its Peptide Demonstrate Cytotoxic Activity in Complex with Tag7 (PGLYRP1) Peptide” (International Journal of Molecular Sciences, 2024)

B1: Mts1 (S100A4) protein, recombinant human (natural protein)
chain: not shown
modifications: Alexa Fluor 633 label (only in the thermophoresis with Tag7, 17.1, 17.1A and 17.1B)
notes: cDNA subcloned into pQE-30; PDB 3NCF is printed for Mts1 but may be a misprint; also called metastasin 1; full-sized Mts1; source: E. coli M15 (pREP4), pQE-30, purified (HisTrap FF)

Experiments:
[1] = target: the molecule itself; test: SDS-PAGE and Western blot; eluate of recombinant Mts1 from 17.1-Sepharose resolved by 12% SDS-PAGE and blotted with anti-Mts1; oligomer state read from the band
[2] = target: B1; test: MST; Mts1 labelled with Alexa Fluor 633 (200 nM), preincubated 20 min in the dark at room temperature with 16 concentrations of Tag7 or peptide; Monolith NT.115, 10% IR laser power; apparent Kd; settings: both partners purified

Row | Kd [2] | Binder | stoichiometry N [1]
1 |  | B1 | 4
2 | 7.26 nM | HRDVQRT (source: synthetic peptide (Fmoc, HPLC purified)) [peptide 17.1B of Tag7 (PGLYRP1)] | 
3 | 109 nM | RSNYVLKG (source: synthetic peptide (Fmoc, HPLC purified)) [peptide 17.1A of Tag7 (PGLYRP1)] | 
